Measured values reported in patent US20090291088A1 (Biogen, published 2009).

Tests used:
[1] = biological target: T1, human IGF-1R(1-902)-His10 (human, UniProt P08069 31-932); experiment: SPR, Fab over captured IGF-1R-10His
T1 construct: Cy5-labelled in tr-FRET; also called hIGF-1R-His10; IGF-1R-His
Description: (§1) All surface plasmon resonance (SPR) experiments were performed on a Biacore 3000 set to 25° C. using HBS-EP (Biacore, Cat. No. BR-1001-88) as the running buffer. A biotin-labeled anti-HisTag antibody (biotin-PENTA-His, Qiagen Cat. No. 34440) was immobilized to saturation on a Biacore SA chip (Cat. No. BR-1000-32) surface by injection at 500 nM in HBS-EP buffer. […] Subsequent to IGF-1R injections, flow rates were increased to 20 μL/min. A second, 130 μL injection of anti-IGF-1R antibody or Fab was performed to investigate interactions with the receptor. Each antibody and Fab was serially diluted from 64 nM to 0.5 nM to obtain concentration dependent kinetic binding curves. Each injection series was regenerated using 3×10 μL injections of 10 mM Acetate, pH 4.0, at 20 μL/min. Each curve was double referenced using (1) data obtained from a streptavidin surface devoid of IGF-1R and (2) data from a primary injection of IGF-1R followed by a secondary injection of HBS-EP buffer. The concentration series for each antibody and Fab was fit to the 1:1 binding model provided within the BiaEvaluation software of the manufacturer.
To obtain discrete affinities, Fab fragments of each antibody were generated using papain digestion as described above.

[2] = biological target: T2, human IGF-1R expressed on cells (human, UniProt P08069 31-1367); experiment: flow cytometry, MCF-7 cells
T2 construct: On MCF-7 tumor cells or on 3T3/CHO transfectants; precursor is processed into alpha and beta subunits; Signal peptide 1-30 left out as stated; also called wild type IGF-1R; IGF-1R 3T3
Description: The ability of Fabs to bind to the wild type IGF-1R was determined by flowcytometry using MCF-7 tumor cell line.
MCF-7 cells (Human Breast Adenocarcinoma from NCI) were split 24 hours prior to the setup of the assay to obtain 70% confluent monolayer. Routinely, MCF-7 cell line was maintained within 20 passages. Cells were lifted with cell dissociation buffer (Gibco catalog #13151-014), counted, washed and adjusted to 1×10⁶ cells/ml and one ml of cells were then added to each tube (12×75 mm tube Falcon catalog# 352054). Cells were pelleted and supernatant removed by centrifugation at 1200 rpm for 5 min and 100 μl of diluted antibodies were then added to the cell pellet. Purified Fabs were tested at a starting concentration of either 210 or 60 μg/ml with 1:3 dilutions in FACS buffer, down to 0.001 μg/ml. FACS buffer used throughout the assay was PBS (without Ca++/Mg++) containing 1% BSA (Sigma catalog# A-7906; Sigma-Aldrich Corp. (St. Louis, Mo., USA)) and 0.1% Sodium Azide (Sigma catalog #S2002). […] Samples were allowed to incubate on ice for 1 hour and 15 minutes then were washed with 2 ml FACS buffer and centrifuged at 1200 rpm for 5 minutes at 4° C. The supernatant was aspirated and 100 μl of the secondary detection antibody was added to each corresponding tube in FACS buffer. Samples were then incubated for 30 minutes on ice, in the dark. Cells were washed as described above, then, re-suspended in […] FACS buffer per tube/sample.
Cells were stained for live cell determination with Propidium Iodide staining solution (PI for dead cell exclusion; BD Pharmingen catalog# 51-66211E or 556463; use at 1:500 final in FACS buffer). Samples were run on the FACSCalibur instrument (Becton Dickinson) with 10,000 live events collected per sample.

[3] = biological target: T3, hIGF-1R-Fc mutant SD104 (H464A) (human, UniProt P08069 31-933); experiment: SPR, Fab over captured mutant
T3 construct: not shown: C-terminal human IgG1-Fc tag

[4] = biological target: T4, hIGF-1R-Fc mutant SD110 (E533H) (human, UniProt P08069 31-933); experiment: SPR, Fab over captured mutant
T4 construct: not shown: C-terminal human IgG1-Fc tag

[5] = biological target: T5, hIGF-1R-Fc mutant SD102 (E459A, S460A) (human, UniProt P08069 31-933); experiment: SPR, Fab over captured mutant
T5 construct: not shown: C-terminal human IgG1-Fc tag

[6] = biological target: T6, hIGF-1R-Fc mutant SD109 (Y482A, R483W) (human, UniProt P08069 31-933); experiment: SPR, Fab over captured mutant
T6 construct: not shown: C-terminal human IgG1-Fc tag

[7] = biological target: T7, hIGF-1R-Fc mutant SD103 (D461A, V462T) (human, UniProt P08069 31-933); experiment: SPR, Fab over captured mutant
T7 construct: not shown: C-terminal human IgG1-Fc tag

[8] = biological target: T8, hIGF-1R-Fc mutant SD108 (H480E) (human, UniProt P08069 31-933); experiment: SPR, Fab over captured mutant
T8 construct: not shown: C-terminal human IgG1-Fc tag

[9] = biological target: T9, hIGF-1R-Fc mutant SD113 (E570A, I571T) (human, UniProt P08069 31-933); experiment: SPR, Fab over captured mutant
T9 construct: not shown: C-terminal human IgG1-Fc tag

[10] = biological target: T10, hIGF-1R-Fc mutant SD015 (H464E) (human, UniProt P08069 31-933); experiment: SPR, Fab over captured mutant
T10 construct: not shown: C-terminal human IgG1-Fc tag

human IGF-1R(1-903)-Fc [11] = biological target: T11, human IGF-1R(1-903)-Fc (human, UniProt P08069 31-933); experiment: ELISA, plate coated with soluble IGF-1 receptor Fc fusion protein, detection with anti-human kappa-HRP
T11 construct: Made by Biogen Idec; Multimerises through IGF-1R and Fc; also called hIGF-1R-Fc; IGF-1R-Fc; not shown: C-terminal human IgG1-Fc tag
Description: The plate was washed with phosphate-buffered saline (PBS, Irvine Scientific, Cat#9240), pH 7.4 plus 0.025% Tween 20 in the Skan Washer 300 (Skatron Instruments), blocked with buffer containing 1% nonfat milk, 0.05% Tween 20 in PBS, pH 7.4, and then incubated at room temperature for 1 hour. After incubation plate was washed with PBS plus 0.025% Tween 20 in the Skan Washer 300. […] Following a one hour incubation at room temperature, plate was washed with PBS plus 0.025% Tween 20 in the Skan Washer 300. […] Plate incubated for 1 hour at room temperature was washed with PBS plus 0.025% Tween 20 in the Skan Washer 300. […] The absorbance was measured at 450 nm, background 540 nm for TMB using the Molecular Devices plate reader. Data was analyzed using the SOFTMAX PRO software package version 4.3 LS (Molecular Devices Corp.).

[12] = biological target: T12, IGF-1R (soluble, construct not stated) (human, UniProt P08069 31-932, limits assumed); experiment: ligand blocking, competitor IGF-1; IGF-1 as the blocked ligand
T12 construct: whole entry named; also called Solube IGF-1R Protein; soluble recombinant human IGF-1R

[13] = biological target: T12, IGF-1R (soluble, construct not stated …); experiment: binding to soluble IGF-1R protein
[14] = biological target: T1, human IGF-1R(1-902)-His10; experiment: SPR, antibody over IGF-1R-10His captured by anti-His, 1:1 model, approximate
Description: as §1, with “The concentration series for each antibody and Fab was fit to the 1:1 binding model provided within the BiaEvaluation software of the manufacturer.” left out
(§2) The rates at which the antibodies accumulate on the IGF-1R coated surface when applied at various concentrations as well as the rates at which they dissociated during applications of pure buffer were investigated by fitting the data to a 1:1 binding model. Approximate kinetic rate constants and equilibrium dissociation constant were calculated (Table 14).

[15] = biological target: T2, human IGF-1R expressed on cells; experiment: binding to tumor cells
[16] = biological target: T12, IGF-1R (soluble, construct not stated …); experiment: ligand blocking, competitor IGF-2; IGF-2 as the blocked ligand
human IGF-1R(1-903)-Fc [17] = biological target: T11, human IGF-1R(1-903)-Fc; experiment: competition ELISA: biotinylated hIGF-1R-Fc on streptavidin plate, 320 nM human IGF-1 His, detection with anti-His-HRP; blocked ligand human IGF-1 His
Description: hIGF-1R-Fc was biotinylated using EZ-Link Sulfo-NHS-LC-Biotin according to the protocol provided by the manufacturer (Pierce Cat. No. 21335). Biotinylated human IGF-1R-Fc at 5 μg/ml was added to the wells of SigmaScreen streptavidin-coated 96-well plates (Sigma, Cat. No. M5432-5EA; Sigma-Aldrich Corp. (St. Louis, Mo., USA)) at 100 μL/well and incubated overnight at 2-8° C. The plates were then washed four times with 200 μL/well PBST. […] The dilutions were added to the plates in duplicate at 100 μL/well and the plates were incubated at RT for 1 hour. The plates were then washed four times with 200 μL/well PBST. An HRP-conjugated anti-Histag antibody (Penta-His HRP Conjugate, QIAGEN, Cat. No. 1014992) was diluted 1:1000 in PBST and added to plates at 100 μL/well, and the plates were incubated at RT for one hour. The plates were then washed four times with 200 μL/well PBST. SureBlue Reserve TMB Microwell Peroxidase Substrate (KPL, Cat. No. 53-00-01) was added to plates at 100 μL/well followed by 1% phosphoric acid at 100 μL/well once the desired reaction was observed. The absorbance of each well was determined at 450 nm, and the results were normalized and plotted against the log of antibody concentration.

human INSR(28-956)-His10 = biological target: T13, human INSR(28-956)-His10 (human, UniProt P06213 28-956); experiment: SPR, INSR over immobilised antibody
T13 construct: range 28-956; Bought (R&D Systems 1544-IR); also called rh-INSR; soluble insulin receptor

[18] = biological target: T1, human IGF-1R(1-902)-His10; experiment: SPR, antibody over captured IGF-1R-10His
Description: as §1, §2

[19] = biological target: T14, Rhesus IGF-1R expressed on CHO cells (rhesus monkey, UniProt I2CWY3 31-1367); experiment: binding to CHO transfectants
T14 construct: whole, on cells; also called Rhesus IGF-1R/CHO

[20] = biological target: cynomolgus IGF-1R expressed on cells (cynomolgus macaque, UniProt G7P9I7 31-1343); experiment: binding to CHO transfectants
[21] = biological target: T2, human IGF-1R expressed on cells; experiment: cell-based or functional assay
human IGF-1R(1-903)-Fc [22] = biological target: T11, human IGF-1R(1-903)-Fc; experiment: ELISA on hIGF-1R-Fc, competitor biotinylated M13-C06
[23] = biological target: T15, rat IGF-1R expressed on immune cells (rat, UniProt P24062 31-1370); experiment: FACS on granulocytes, monocytes, lymphocytes
T15 construct: whole, on cells

human IGF-1R(1-903)-Fc [24] = biological target: T11, human IGF-1R(1-903)-Fc; experiment: competition ELISA: biotinylated hIGF-1R-Fc on streptavidin plate, 320 nM human IGF-2 His, detection with anti-His-HRP; blocked ligand human IGF-2 His
[25] = biological target: T16, human insulin receptor expressed in mammalian cells (UniProt P06213 28-1382, limits assumed); experiment: immunoprecipitation from IR CHO lysate, western blot with mouse anti-human IR
T16 construct: whole, on cells; Cells were solubilised with Triton X-100 before immunoprecipitation; also called INSR; IR
Description: Recombinant IGF-1R and insulin receptor (IR) were independently expressed in mammalian cells (3T3 or CHO). […] Antibody/antigen complexes were released from the beads by acid treatment, applied to Tris-Glycine SDS-PAGE gels and blotted to nitrocellulose membranes. Detection was performed using mouse anti-human IR (FIG. 24A) or mouse anti-human IGF-1R (FIG. 24B) and goat α-mouse IgG.

T15 sequence (P24062 31-1370): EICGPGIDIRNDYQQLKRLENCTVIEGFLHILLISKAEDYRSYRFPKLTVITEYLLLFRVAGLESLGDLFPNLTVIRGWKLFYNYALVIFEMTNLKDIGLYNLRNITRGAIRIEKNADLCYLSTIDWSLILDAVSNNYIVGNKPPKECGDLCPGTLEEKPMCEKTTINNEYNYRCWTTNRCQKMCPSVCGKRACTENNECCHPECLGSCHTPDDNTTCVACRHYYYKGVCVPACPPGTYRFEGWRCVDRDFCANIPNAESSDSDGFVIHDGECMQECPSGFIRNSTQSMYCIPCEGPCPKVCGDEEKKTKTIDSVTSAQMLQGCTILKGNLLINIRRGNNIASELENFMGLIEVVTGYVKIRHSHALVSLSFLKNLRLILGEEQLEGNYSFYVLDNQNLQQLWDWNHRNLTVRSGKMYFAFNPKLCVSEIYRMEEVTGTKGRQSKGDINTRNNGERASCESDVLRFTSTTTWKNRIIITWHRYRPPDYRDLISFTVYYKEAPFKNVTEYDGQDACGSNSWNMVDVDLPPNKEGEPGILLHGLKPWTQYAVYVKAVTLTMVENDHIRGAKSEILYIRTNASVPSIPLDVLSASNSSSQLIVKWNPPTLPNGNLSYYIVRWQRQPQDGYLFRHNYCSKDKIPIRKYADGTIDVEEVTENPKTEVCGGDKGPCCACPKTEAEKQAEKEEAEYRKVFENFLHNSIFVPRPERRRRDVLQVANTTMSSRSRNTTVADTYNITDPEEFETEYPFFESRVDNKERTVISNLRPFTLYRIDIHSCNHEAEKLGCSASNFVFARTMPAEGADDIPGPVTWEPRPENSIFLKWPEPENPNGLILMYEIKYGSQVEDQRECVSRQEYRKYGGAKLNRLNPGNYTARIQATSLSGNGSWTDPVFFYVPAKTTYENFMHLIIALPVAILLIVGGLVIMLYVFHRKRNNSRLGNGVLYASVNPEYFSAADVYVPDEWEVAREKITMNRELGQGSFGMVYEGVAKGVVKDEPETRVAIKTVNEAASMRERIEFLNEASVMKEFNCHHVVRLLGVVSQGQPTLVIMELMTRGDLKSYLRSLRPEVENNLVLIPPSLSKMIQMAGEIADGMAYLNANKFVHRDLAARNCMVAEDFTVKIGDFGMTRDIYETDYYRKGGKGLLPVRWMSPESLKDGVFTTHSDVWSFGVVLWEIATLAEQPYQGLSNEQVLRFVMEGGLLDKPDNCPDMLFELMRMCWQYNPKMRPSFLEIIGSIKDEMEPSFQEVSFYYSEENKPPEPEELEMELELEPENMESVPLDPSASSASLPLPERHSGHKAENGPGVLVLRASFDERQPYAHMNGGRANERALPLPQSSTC
T14 sequence (I2CWY3 entry or part of it): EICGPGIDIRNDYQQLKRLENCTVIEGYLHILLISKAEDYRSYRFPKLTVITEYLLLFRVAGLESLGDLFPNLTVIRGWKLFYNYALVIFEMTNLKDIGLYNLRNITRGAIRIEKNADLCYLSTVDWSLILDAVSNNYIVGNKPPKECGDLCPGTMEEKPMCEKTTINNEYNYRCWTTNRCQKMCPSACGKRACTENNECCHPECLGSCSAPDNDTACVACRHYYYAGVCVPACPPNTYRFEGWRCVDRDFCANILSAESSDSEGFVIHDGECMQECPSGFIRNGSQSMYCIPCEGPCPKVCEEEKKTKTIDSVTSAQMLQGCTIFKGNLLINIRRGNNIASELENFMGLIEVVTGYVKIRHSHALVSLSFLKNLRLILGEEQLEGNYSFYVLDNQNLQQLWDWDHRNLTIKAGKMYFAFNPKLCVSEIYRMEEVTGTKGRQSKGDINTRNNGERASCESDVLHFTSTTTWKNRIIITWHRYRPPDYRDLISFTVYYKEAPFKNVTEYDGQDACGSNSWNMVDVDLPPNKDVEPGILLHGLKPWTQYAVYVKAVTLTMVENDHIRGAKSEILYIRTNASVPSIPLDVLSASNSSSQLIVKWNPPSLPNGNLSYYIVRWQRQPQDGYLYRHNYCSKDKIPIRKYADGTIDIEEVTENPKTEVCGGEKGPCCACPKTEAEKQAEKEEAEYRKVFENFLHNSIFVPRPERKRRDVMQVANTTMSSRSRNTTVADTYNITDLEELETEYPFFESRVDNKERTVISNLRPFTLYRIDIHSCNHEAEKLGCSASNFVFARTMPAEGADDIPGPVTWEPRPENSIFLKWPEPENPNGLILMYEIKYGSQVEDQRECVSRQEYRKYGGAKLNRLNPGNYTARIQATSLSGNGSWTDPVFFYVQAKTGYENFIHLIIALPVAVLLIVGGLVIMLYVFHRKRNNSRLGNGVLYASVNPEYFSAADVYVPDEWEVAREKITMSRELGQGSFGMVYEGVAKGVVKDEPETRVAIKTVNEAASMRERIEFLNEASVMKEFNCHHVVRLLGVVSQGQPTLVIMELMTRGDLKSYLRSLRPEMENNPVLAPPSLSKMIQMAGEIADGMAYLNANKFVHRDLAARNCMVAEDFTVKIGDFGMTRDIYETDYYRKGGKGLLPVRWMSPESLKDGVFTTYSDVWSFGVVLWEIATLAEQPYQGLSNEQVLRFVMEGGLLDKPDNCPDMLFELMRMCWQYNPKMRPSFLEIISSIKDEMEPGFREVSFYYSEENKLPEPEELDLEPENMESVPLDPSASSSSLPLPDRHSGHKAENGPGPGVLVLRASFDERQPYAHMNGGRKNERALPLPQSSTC

B1: M14-C03 Fab (Fab, V domains shown)
VH: EVQLLESGGGLVQPGGSLRLSCAASGFTFSKYMMSWVRQAPGKGLEWVSYISPSGGLTWYADSVKGRFTISRDNSKNTLYLQMNSLRAEDTAVYYCARDGARGYGMDVWGQGTTVTVSS
VL: DIQMTQSPATLSLSPGERATLSCRASQSVSSYLAWYQQKPGQAPRLLIYDASNRATGIPARFSGSGSGTDFTLTISSLEPEDFAVYYCQQRSNWPPEVTFGPGTKVDIK
notes: Human phage Fab, kappa
Kd [1]: 4.9 nM
koff [1]: 0.00094 s⁻¹
kon [1]: 190000 M⁻¹ s⁻¹
EC50 [2]: 25.4 nM
binding result [3]: no binding (tested: 30 nM)
binding result [4]: no binding (tested: 30 nM)
binding result [5]: no binding (tested: 30 nM)
binding result [6]: no binding (tested: 30 nM)
binding result [7]: no binding (tested: 30 nM)
binding result [8]: no binding (tested: 30 nM)
binding result [9]: no binding (tested: 30 nM)
binding result [10]: no binding (tested: 30 nM)

B2: M13-C06.G4.P.agly (antibody, human IgG4 S228P, kappa, V domains shown)
VH: EVQLLESGGGLVQPGGSLRLSCAASGFTFSIYRMQWVRQAPGKGLEWVSGISPSGGTTWYADSVKGRFTISRDNSKNTLYLQMNSLRAEDTAVYYCARWSGGSGYAFDIWGQGTMVTVSS
VL: DIQMTQSPLSLSASVGDRVTITCQASRDIRNYLNWYQQKPGKAPKLLIYDASSLQTGVPSRFGGSGSGTDFSFTIGSLQPEDIATYYCQQFDSLPHTFGQGTKLEIKR
notes: Full-length human aglycosylated IgG4.P (S228P/T299A, EU), kappa; Places that say only 'M13-C06 antibody' were assigned to this version; Labelled with Eu chelate or biotin in some assays; also called M13-C06_Ab; Eu-C06
EC50 (read off the curve) (human IGF-1R(1-903)-Fc [11]): ~0.04 nM
IC50 [12]: 0.979 nM
EC50 [13]: 0.0422 nM
Kd [14]: 0.13 nM
EC50 [15]: 0.22 nM
IC50 [16]: 0.525 nM
IC50 (read off the curve) (human IGF-1R(1-903)-Fc [17]): ~1 nM
binding result (human INSR(28-956)-His10): no binding (tested: 2 µM)
koff [18]: 0.00025 s⁻¹
kon [18]: 1.8e+06 M⁻¹ s⁻¹
EC50 [19]: 0.27 nM
EC50 [20]: 0.47 nM
inhibition of IGF-1 and IGF-2 mediated IGF-1R receptor phosphorylation (EC50) [21]: < 1 nM
percent competition (relative to self-competition) (human IGF-1R(1-903)-Fc [22]): 90 to 100%
binding result [23]: no binding
IC50 (read off the curve) (human IGF-1R(1-903)-Fc [24]): ~1 nM
binding result [25]: no binding
